Patent US20230097573A1 (LG CHEM, published 2023)
Values belong to the binder of their own block, whether it stands above or below them.

How the values were obtained:
Hu FcRn (BPS Bioscience) [1] = target: T1, Hu FcRn (BPS Bioscience) (human, UniProt P55899 24-297; P61769 21-119); assay: ELISA, huFcRn coated, purified Affimer, pH 6
T1 construct: Bought recombinant protein coated on ELISA plates; also called human FcRn; human neonatal Fc receptor
Procedure: (§1) The binding of AFFIMER® to hu-FcRn was evaluated by enzyme linked immunosorbent assay (ELISA) in 384 well plate format. Hu FcRn (BPS Bioscience) was coated at 5 μg/ml on the plate in 40 mM MES, pH 6. Plates were washed 3 times with 100 ul of washing buffer (PBS, Tween 20 0.05%, pH 6) with a plate washer and saturated with Casein 5% (Sigma) in MES pH 6 for 60 minutes at room temperature (25±1° C.). Plates were washed as described previously. AFFIMER® and negative controls (mAb anti hFcRn (clone ADM31), negative controls) were then diluted in duplicate, and loaded on the plate for 90 minutes at room temperature (25±1° C.). Plates were washed 3 times as described previously. Biotinylated polyclonal antibody anti Cystatin (R&D Systems) was then diluted in dilution buffer (1% casein, 0.05% Tween 20, and 8 mM MES, pH 6) and incubated 60 minutes at room temperature (25±1° C.). Plates were washed 3 times as described previously and Streptavidin HRP (N200, Thermo-Fisher) was incubated for 30 minutes at room temperature (25±1° C.). Plates were washed and the substrate (TMB, Pierce Thermo-Scientific) was added in the plate for 8±1 minute. The reaction was stopped using an acidic solution and plates were read at 450-630 nm. The EC₅₀ was then calculated using the interpolated non-linear four-parameters standard curve (FIGS. 5A-5B and Table 5A).

Hu FcRn (BPS Bioscience) [2] = target: T1, Hu FcRn (BPS Bioscience); assay: ELISA, huFcRn coated, pH 6
Procedure: The binding of AFFIMER® to Hu-FcRn was evaluated by enzyme linked immunosorbent assay (ELISA) in 384 well plate format. Hu FcRn (BPS Bioscience) was coated at 5 μg/ml on the plate in 40 mM MES, pH 6. Plates were washed 3 times with 100 μl of washing buffer (PBS, Tween 20 0.05%, pH 6) with a plate washer and saturated with Casein 5% (Sigma) in MES pH6 for 60 minutes at room temperature (25±1° C.). Plates were washed as described previously. AFFIMER® and negative controls (mAb anti hFcRn (clone ADM31), negative controls) were then diluted in duplicate, and loaded on the plate for 90 minutes at room temperature (25±1° C.). Plates were washed 3 times as described previously. Biotinylated polyclonal antibody anti Cystatin (R&D Systems) was then diluted in dilution Buffer (1% casein, 0.05% Tween 20, and 8 mM MES. It is in pH6) and incubated 60 minutes at room temperature (25±1° C.). Plates were washed 3 times as described previously and Streptavidin HRP (N200, thermo-Fisher) was incubated for 30 minutes at room temperature (25±1° C.). Plates were washed and the substrate (TMB, Pierce Thermo-Scientific) was added in the plate for 8±1 minute. The reaction was stopped using an acidic solution and plates were read at 450-630 nm. The EC50 was then calculated using the interpolated non-linear four-parameters standard curve (Table 4).

Hu FcRn (BPS Bioscience) [3] = target: T1, Hu FcRn (BPS Bioscience); assay: ELISA, huFcRn coated, pH 7.4
Procedure: (§2) The binding of AFFIMER® to hu-FcRn was evaluated by enzyme linked immunosorbent assay (ELISA) in 384 well plate format. Hu FcRn (BPS Bioscience) was coated at 5 μg/ml on the plate in PBS, pH 7.4. Plates were washed 3 times with 100 μl of washing buffer (PBS, Tween 20 0.05%, pH 7.4) with a plate washer and saturated with Casein 5% (Sigma) in MES pH 7.4 for 60 minutes at room temperature (25±1° C.). Plates were washed as described previously. AFFIMER® and controls (mAb anti hFcRn (ADM31), blank) were then diluted in duplicate, and loaded on the plate for 90 minutes at room temperature (25±1° C.). Plates were washed 3 times as described previously. Biotinylated polyclonal antibody anti Cystatin (R&D Systems) was then diluted in dilution Buffer (1% casein, 0.01% Tween 20, and 8 mM MES. It is in pH 7.4) and incubated 60 minutes at room temperature (25±1° C.). Plates were washed 3 times as described previously and Streptavidin HRP (N200, thermo-Fisher) was incubated for 30 minutes at room temperature (25±1° C.). Plates were washed and the substrate (TMB, Pierce Thermo-Scientific) was added in the plate for 8±1 minute. The reaction was stopped using an acidic solution and plates were read at 450-630 nm.

Hu FcRn (BPS Bioscience) [4] = target: T1, Hu FcRn (BPS Bioscience); assay: ELISA, huFcRn coated; ratio of the EC50 at the two pH values
Procedure: as §1
The binding of AFFIMER® to hu-FcRn was evaluated by enzyme linked immunosorbent assay (ELISA) in 384 well plate format. Hu FcRn (BPS Bioscience) was coated at 5 μg/ml on the plate in PBS, pH 7.4. Plates were washed 3 times with 100 ul of washing buffer (PBS, Tween 20 0.05%, pH 7.4) with a plate washer and saturated with Casein 5% (Sigma) in MES pH 7.4 for 60 minutes at room temperature (25±1° C.). Plates were washed as described previously. AFFIMER® and controls (mAb anti hFcRn (ADM31), blank) were then diluted in duplicate, and loaded on the plate for 90 minutes at room temperature (25±1° C.). Plates were washed 3 times as described previously. […]

Hu FcRn (BPS Bioscience) [5] = target: T1, Hu FcRn (BPS Bioscience); assay: ELISA, huFcRn coated, purified Affimer, pH 7.4
Procedure: as §2, with “100 ul” for “100 μl”, “in pH7.4)” for “in pH 7.4)”, “nm. The EC₅₀ was then calculated using the interpolated non-linear four-parameters standard curve (FIGS. 5A-5B, Table 5A).” for “nm.”

Hu FcRn (BPS Bioscience) [6] = target: T1, Hu FcRn (BPS Bioscience); assay: ELISA, huFcRn coated, purified Affimer fusion, pH 7.4
Procedure: as §2, with “100 ul” for “100 μl”, “in pH7.4)” for “in pH 7.4)”, “nm. The EC₅₀ was then calculated using the interpolated non-linear four-parameters standard curve (FIGS. 5A-5B, Table 5A).” for “nm.”

Hu FcRn (BPS Bioscience) [7] = target: T1, Hu FcRn (BPS Bioscience); assay: ELISA, huFcRn coated, purified Affimer fusion, pH 6
Procedure: as §1

EC50 (Hu FcRn (BPS Bioscience) [1]): 673 pM
EC50 (Hu FcRn (BPS Bioscience) [2]): 47900 pM
EC50 (Hu FcRn (BPS Bioscience) [3]): 225000 pM
pH 6/pH 7.4 (EC50 ratio) (Hu FcRn (BPS Bioscience) [4]): 168
EC50 (Hu FcRn (BPS Bioscience) [5]): 113000 pM
B1: FcRn-35 (designed binder)
chain: MIPRGLSEAKPATPEIQEIVDKVKPQLEEKTNETYGKLEAVQYKTQVLAHRQYPPGPHSTNYYIKVRAGDNKYMHLKVFNGPYHFHHYYKHADRVLTGYQVDKNKDDELTGFHHHHHH
notes: AFFIMER (stefin A variant); also called LGC01-35

EC50 (Hu FcRn (BPS Bioscience) [6]): 4300 pM
EC50 (Hu FcRn (BPS Bioscience) [7]): 30 pM
pH 6/pH 7.4 (EC50 ratio) (Hu FcRn (BPS Bioscience) [4]): 143
B2: AVA04-251 FX6 (designed binder)
chain: MIPRGLSEAKPATPEIQEIVDKVKPQLEEKTNETYGKLEAVQYKTQVLALSFNNYHWHSTNYYIKVRAGDNKYMHLKVFNGPKLRHDKLTHADRVLTGYQVDKNKDDELTGFAEAAAKEAAAKEAAAKEAAAKEAAAKEAAAKMIPRGLSEAKPATPEIQEIVDKVKPQLEEKTNETYGKLEAVQYKTQVLAREGRQDWVLSTNYYIKVRAGDNKYMHLKVFNGPWVPFPHQQLADRVLTGYQVDKNKDDELTGFAEAAAKEAAAKEAAAKEAAAKEAAAKEAAAKMIPRGLSEAKPATPEIQEIVDKVKPQLEEKTNETYGKLEAVQYKTQVLAREGRQDWVLSTNYYIKVRAGDNKYMHLKVFNGPWVPFPHQQLADRVLTGYQVDKNKDDELTGFHHHHHH

EC50 (Hu FcRn (BPS Bioscience) [1]): 3 pM
EC50 (Hu FcRn (BPS Bioscience) [2]): 140 pM
EC50 (Hu FcRn (BPS Bioscience) [3]): 895 pM
pH 6/pH 7.4 (EC50 ratio) (Hu FcRn (BPS Bioscience) [4]): 167
EC50 (Hu FcRn (BPS Bioscience) [5]): 500 pM
B3: FcRn-38 (designed binder)
chain: MIPRGLSEAKPATPEIQEIVDKVKPQLEEKTNETYGKLEAVQYKTQVLALSFNNYHWHSTNYYIKVRAGDNKYMHLKVFNGPKLRHDKLTHADRVLTGYQVDKNKDDELTGFHHHHHH
notes: AFFIMER (stefin A variant); also called LGC01-38
